The test system of data set [1] is dopaminergic neurons in rat embryo (E16) mesencephalic cell cultures. Briefly: Bioassay for dopaminergic neurotrophic activity: 3H-dopamine uptake in dissociated mesencephalic cell cultures. The class given is cell-based. The note with it: for ED50 for increasing dopamine uptake: rat embryo (E16) mesencephalic culture; for SP. ACT (specific activity, dopamine uptake trophic units per protein): TU = reciprocal of dilution giving 50% of maximal stimulation of 3H-DA uptake; for FOLD (specific activity relative to B49 conditioned medium): purification fold over CM; for BIOACTIVITY: total trophic units at purification step. How it is done: The dopaminergic activity of the GDNF is used to facilitate the purification process. […] Briefly, cultures of dissociated mesencephalic cells are prepared, either in serum rich or serum free environments. Samples to be tested for dopaminergic activity are desalted and serially added to the cell cultures and the dishes are incubated for 6 days at 37° C. in a humidified atmosphere containing 6.5% CO2. The cultures, in the presence of the testing material, are then incubated at 37° C. with tritiated dopamine (^3H-DA). The dopamine uptake is halted, the cells washed, and the dopamine uptake analyzed by scintillation counting of retained tritium in the cultures.
Culture conditions: Dissociated mesencephalic cell cultures were prepared as previously described (Friedman and Mytilineou 1987 Neurosci. Lett. 79:65-72), with minor modifications. Briefly, rostral mesencephalic tegmentum from brains of Sprague-Dawley rat embryos, at the 16th day of gestation, were dissected under the microscope in sterile conditions, collected in Ca^2+- and Mg^2+-free Dulbecco's phosphate buffered saline (Gibco, Gaithersburg, Md.) and dissociated mechanically by mild trituration. The cells were plated in 100 μl per well onto 16-mm diameter tissue culture wells (Falcon, Lincoln Park, N.J., 24-well plate) containing 400 μl medium to give a density of 2.5-3.5×10^5 cells per well. The culture wells had been previously exposed to 0.1 mg/ml solution of poly L-ornithine in 10 mM sodium borate, pH 8.4, for 3 hours at 37° C., washed 3 times in milli-Q H2O and once in Earle's balanced salt solution (Gibco). The feeding medium (10/10) consisted of minimal essential medium (MEM, Gibco) supplemented with glucose (33 mM), sodium bicarbonate (24.5 mM), glutamine (2 mM), HEPES (15 mM), penicillin G (5 U/ml), streptomycin (5 μg/ml), 10% heat-inactivated fetal calf serum (Gibco) and 10% heat inactivated horse serum (Gibco). The cultures were kept at 37° C. in a water-saturated atmosphere containing 6.5% CO2. After 3 hours, when most of the cells had adhered to the bottom of the well, the medium was replaced with 500 μl of fresh medium. At this time, a serial dilution of the sample to be assayed for GDNF activity was added to each well in duplicate and the plates were incubated in the 37° C. incubator. After a week, the cultures were treated for 24 hours with fluorodeoxyuridine (13 μg/ml) and uridine (33 μg/ml) to prevent excessive glial proliferation and subsequently fed with the above medium without fetal calf serum. The feeding medium was changed weekly.
Alternatively, chemically defined serum-free medium was used in which serum was replaced by a mixture of proteins; hormones and salts. The defined medium (DM) consisted of a mixture of MEM and F12 nutrient mixture (both Gibco, 1:1; vol/vol) with glucose (33 mM), glutamine (2 mM) NaHCO3 (24.5 mM), HEPES (15 mM), supplemented with transferrin (100 μg/ml), insulin (25 μg/ml), putrescine (60 μM), progesterone (20 nM), sodium selenite (30 nM), penicillin G (5 U/ml) and streptomycin (5 μg/ml). The osmolarity of the DM was adjusted to 325 by the addition of milli-Q H2O. (110-125 ml H2O/l). […] All assays reached in the following examples were done in serum-containing medium.
The functional status of the dopaminergic neurons may be assayed in these cultures by measuring dopamine uptake through specific “scavenger” transporters in the dopaminergic neurons and by counting the number of neurons positive for the dopamine synthetic enzyme tyrosine hydroxylase using immunohistochemistry.

Data set [2] deals with sympathetic neurons from chick embryo sympathetic chain ganglia. Put plainly: Neuronal survival assay (MTT), sympathetic chain ganglia. As to conditions: for fold lower than refolded rhGDNF in sympathetic neuron survival bioassay / apparent ED50 in the sympathetic neuron survival bioassay: prior to refolding; for apparent ED50 in the sympathetic neuron survival bioassay: exposed to 30 mM 2-mercaptoethanol. The class given is cell-based. How it is done: Cultures of primary check embryo ciliary ganglia and sympathetic chain ganglia were prepared as previously described (Collins 1978 Develop. Biol. 65:50; Manthorpe et al. 1986 Develop. Brain Res. 25:191). Briefly, ciliary or sympathetic ganglia were removed from fertile, pathogen free chicken eggs that had been incubated for 8 and 10 days, respectively, at 38° C. in a humidified atmosphere. The ganglia were chemically dissociated by exposure first to Hands' Balanced Salt Solution without divalent cations, containing 10 mM HEPES buffer pH 7.2 for 10 min at 37° C., and then by exposure to a solution of 0.125% bactotrypsin 1:250 (Difco, Detroit, Mich.) in Hanks' Balanced Salt Solution modified as above for 12 min at 37° C. Trypsinization was stopped by addition of fetal calf serum to a final concentration of 10%.
After this treatment, ganglia were transferred to a solution consisting of Dulbecco's high glucose Modified Eagle Medium without bicarbonate containing 10% fetal calf serum and 10 mM HEPES, pH 7.2 and were mechanially dissociated by trituration approximately 10 times through a glass Pasteur pipet whose opening had been fire polished and constricted to a diameter such that it took 2 seconds to fill the pipet.
The dissociated ganglia were then plated in culture medium (Dulbecco's Modified Eagle Medium supplemented with 10% fetal calf serum, 4 mM glutamine, 60 mg/L penicillin-G, 25 mM HEPES, pH 7.2) in 100 mm diameter tissue culture dishes (40 dissociated ganglia per dish) for three hours. […] After three hours, the nonadherent nerve cells were collection by centrifugation, resuspended in culture medium, and plated in 50 μl per well onto half area 96 well microtiter tissue culture plates at a density of 1500 nerve cells per well. The microtiter wells had been previously exposed to a 1 mg/ml solution of poly-L-ornithine in 10 mM sodium borate, pH 8.4 overnight at 4° C., washed in distilled water and air dried.
Ten μl of a serial dilution of the sample to be assayed for neurotrophic activity was added to each well and the dishes were incubated for 20 hours at 37° C. in a humidified atmosphere containing 7.5% CO2. After 18 hours for ciliary and 40 hours for sympathetic ganglia, 15 μl per well of a 1.5 mg/ml solution of the tetrasolium dye MTT in Dulbecco's high glucose Modified Eagle Medium without bicarbonate containing 10 mM HEPES, pH 7.2, was added and the cultures placed in the 37° C. incubator for 4 hours. Then, 75 μl of a solution of 6.7 ml of 12 M HCl per liter of isopropanol was added and the contents of each well triturated 30 times to break open the cells and suspend the dye. The absorbance of 570 nm was determined relative to a 690 nm reference for each well using an automatic microtiter plate reader (Dynatech, Chantilly, Va.). The absorbance of wells which had not received any neurotrophic agent (negative controls) was substracted from the absorbance of sample-containing wells. The resulting absorbance is proportional to the number of living cells in each well, defined as those nerve cells capable of reducing the dye. The number of trophic units of neurotrophic activity was defined as the reciprocal of the dilution that gave 50% of maximal survival of nerve cells. Specific activity was determined by dividing the number of trophic units by the amount of protein present in the sample.

Positions count from the first letter of the chain named.

B1: refolded GDNF: recombinant mature human GDNF expressed in E. coli and refolded (protein)
chain: SNMPEDYPDQFDDVMDFIQATIKRLKRSPDKQMAVLPRRERNRQAAAANPENSRGKGRRGQRGKNRGCVLTAIHLNVTDLGLGYETKEELIFRYCSGSCDAAETTYDKILKNLSRNRRLVTDKVGQACCRPIAF
As for B1, the “bioactivity in dopamine uptake assay” value in data set [1] is “fully active”. Further, the figures for the “ED50 for increasing dopamine uptake” value in data set [1] and in data set [1] (listed as rhGDNF) were “about 3 pg/ml” and “about 30 pg/ml”, respectively. For the same molecule, the “bioactivity in sympathetic neuron survival bioassay” value in data set [2] was “fully active”. In data set [2] (chick embryo (E10) sympathetic ganglia), the “ED50 for sympathetic neuron survival” value is reported as “about 3 ng/ml”.

B2: GDNF prior to refolding: E. coli-expressed human GDNF, exposed to 2-mercaptoethanol and purified by S- or Q-Sepharose, before refolding (protein, UniProt P39905 78-211, looked up)
Glial cell line-derived …: SPDKQMAVLPRRERNRQAAAANPENSRGKGRRGQRGKNRGCVLTAIHLNVTDLGLGYETKEELIFRYCSGSCDAAETTYDKILKNLSRNRRLVSDKVGQACCRPIAFDDDLSFLDDNLVYHILRKHSAKRCGCI
modifications: unrefolded, E. coli-expressed
As to B2, the “bioactivity in dopamine uptake assay” value in data set [1] is recorded as “no detectable bioactivity”. In data set [2], the “bioactivity in sympathetic neuron survival bioassay” value is “greatly reduced bioactivity”.

B3: 3. RP-HPLC: GDNF after first reverse-phase HPLC (protein, UniProt Q07731 78-211, looked up)
Glial cell line-derived …: B2 Glial cell line-derived … with M6A, V8A, N22S, D73E, T78M, N89S, V93T, I105V, N117S
modifications: purification fraction
Consider B3, for which, in data set [1], the “SP. ACT (specific activity, dopamine uptake trophic units per protein)” value is recorded as 12,000 TU/μg; the “FOLD (specific activity relative to B49 conditioned medium)” value is given as 24,000; the BIOACTIVITY is 12 TU × 10^−3.

B4: S-Sepharose chromatographed material: unrefolded human GDNF TU extract partially purified on S-Sepharose (protein, UniProt P39905 78-211, looked up)
Glial cell line-derived …: B2 Glial cell line-derived …
modifications: unrefolded, partially purified
As to B4, in data set [2], the “fold lower than refolded rhGDNF in sympathetic neuron survival bioassay” value is “about 333 fold” and the “apparent ED50 in the sympathetic neuron survival bioassay” value was “about 1 μg/ml”.

B5: 4. Preparative SDS-PAGE: GDNF eluted from preparative non-reducing SDS-PAGE (protein, UniProt Q07731 78-211, looked up)
Glial cell line-derived …: B2 Glial cell line-derived … with M6A, V8A, N22S, D73E, T78M, N89S, V93T, I105V, N117S
modifications: purification fraction
B5 showed a BIOACTIVITY in data set [1] of 7 TU × 10^−3.

B6: 5. RP-HPLC: GDNF peak 3 after second reverse-phase HPLC (protein, UniProt Q07731 78-211, looked up)
Glial cell line-derived …: B2 Glial cell line-derived … with M6A, V8A, N22S, D73E, T78M, N89S, V93T, I105V, N117S
modifications: purification fraction
notes: GDNF peak 3 after second reverse-phase HPLC
With B6, in data set [1], the “SP. ACT (specific activity, dopamine uptake trophic units per protein)” value is given as 17,000 TU/μg; the “FOLD (specific activity relative to B49 conditioned medium)” value is listed as 34,000; the BIOACTIVITY is reported as 5 TU × 10^−3.

B7: Q-Sepharose chromatographed material: unrefolded sulfonylated human GDNF extract partially purified on Q-Sepharose (protein, UniProt P39905 78-211, looked up)
Glial cell line-derived …: B2 Glial cell line-derived …
modifications: unrefolded, sulfonylated
In the case of B7, in data set [2], the “fold lower than refolded rhGDNF in sympathetic neuron survival bioassay” value was “about 100 fold” and the “apparent ED50 in the sympathetic neuron survival bioassay” value is “about 3 μg/ml”.
